Measured values published in patent US20260049138A1 (Chugai, published 2026).

Target: T1, CD3ε homodimer protein (human, UniProt P07766 23-126, limits assumed)
T1 construct: also called CD3 (CD3ε)
Assay: SPR Biacore T200, CD3ε homodimer on chip;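 further: Light-chain single-residue variant antibodies injected over amine-coupled CD3ε homodimer on a CM4 chip at 25 °C, bound amount divided by that of the GLS3000-containing antibody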

T1 sequence (P07766 23-126 limits assumed): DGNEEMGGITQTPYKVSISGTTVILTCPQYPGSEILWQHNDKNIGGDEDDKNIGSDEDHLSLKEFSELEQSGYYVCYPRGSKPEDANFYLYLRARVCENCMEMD

Row | Binder | ratio of amount bound vs unaltered GLS3000
1 | GLS3000 K50Q one-arm antibody (antibody, human IgG1, kappa, L234A L235A, N297A, name in Kabat numbering) heavy: QVQLVESGGGVVQPGRSLRLSCAASGFTFSNAWMHWVRQAPGKGLEWVAQIKAKSNNYATYYAESVKGRFTISRDDSKNSLYLQMNSLKTEDTAVYYCRYVHYGAYYGVDAWGQGTTVTVSSASTKGPSVFPLAPSSKSTSGGTAALGCLVKDYFPEPVTVSWNSGALTSGVHTFPAVLQSSGLYSLSSVVTVPSSSLGTQTYICNVNHKPSNTKVDKKVEPKSCDKTHTCPPCPAPEAAGGPSVFLFPPKPKDTLMISRTPEVTCVVVDVSHEDPEVKFNWYVDGVEVHNAKTKPREEQYASTYRVVSVLTVLHQDWLNGKEYKCKVSNKALPAPIEKTISKAKGQPREPQVYTLPPSRCELTKNQVSLSCAVKGFYPSDIAVEWESNGQPENNYKTTPPVLDSDGSFFLVSKLTVDKSRWQQGNVFSCSVMHEALHNHYTQKSLSLSPDYKDDDDK EPKSSDKTHTCPPCPAPELLGGPSVFLFPPKPKDTLMISRTPEVTCVVVDVSHEDPEVKFNWYVDGVEVHNAKTKPREEQYNSTYRVVSVLTVLHQDWLNGKEYKCKVSNKALPAPIEKTISKAKGQPREPQVCTLPPSRDELTKNQVSLWCLVKGFYPSDIAVEWESNGQPENNYKTTPPVLDSDGSFFLYSKLTVDKSRWQQGNVFSCSVMHEALHNRYTQKSLSLSP light: DIVMTQSPLSLPVTPGEPASISCRSSQSLVHSNRNTYLHWYQQKPGQAPRLLIYQVSNRFSGVPDRFSGSGSGTDFTLKISRVEAEDVGVYYCGQGTQVPYTFGQGTKLEIKRTVAAPSVFIFPPSDEQLKSGTASVVCLLNNFYPREAKVQWKVDNALQSGNSQESVTEQDSKDSTYSLSSTLTLSKADYEKHKVYACEVTHQGLSSPVTKSFNRGEC | 0.18
2 | GLS3000 K50R one-arm antibody (antibody, human IgG1, kappa, L234A L235A, N297A, name in Kabat numbering) heavy: QVQLVESGGGVVQPGRSLRLSCAASGFTFSNAWMHWVRQAPGKGLEWVAQIKAKSNNYATYYAESVKGRFTISRDDSKNSLYLQMNSLKTEDTAVYYCRYVHYGAYYGVDAWGQGTTVTVSSASTKGPSVFPLAPSSKSTSGGTAALGCLVKDYFPEPVTVSWNSGALTSGVHTFPAVLQSSGLYSLSSVVTVPSSSLGTQTYICNVNHKPSNTKVDKKVEPKSCDKTHTCPPCPAPEAAGGPSVFLFPPKPKDTLMISRTPEVTCVVVDVSHEDPEVKFNWYVDGVEVHNAKTKPREEQYASTYRVVSVLTVLHQDWLNGKEYKCKVSNKALPAPIEKTISKAKGQPREPQVYTLPPSRCELTKNQVSLSCAVKGFYPSDIAVEWESNGQPENNYKTTPPVLDSDGSFFLVSKLTVDKSRWQQGNVFSCSVMHEALHNHYTQKSLSLSPDYKDDDDK EPKSSDKTHTCPPCPAPELLGGPSVFLFPPKPKDTLMISRTPEVTCVVVDVSHEDPEVKFNWYVDGVEVHNAKTKPREEQYNSTYRVVSVLTVLHQDWLNGKEYKCKVSNKALPAPIEKTISKAKGQPREPQVCTLPPSRDELTKNQVSLWCLVKGFYPSDIAVEWESNGQPENNYKTTPPVLDSDGSFFLYSKLTVDKSRWQQGNVFSCSVMHEALHNRYTQKSLSLSP light: DIVMTQSPLSLPVTPGEPASISCRSSQSLVHSNRNTYLHWYQQKPGQAPRLLIYRVSNRFSGVPDRFSGSGSGTDFTLKISRVEAEDVGVYYCGQGTQVPYTFGQGTKLEIKRTVAAPSVFIFPPSDEQLKSGTASVVCLLNNFYPREAKVQWKVDNALQSGNSQESVTEQDSKDSTYSLSSTLTLSKADYEKHKVYACEVTHQGLSSPVTKSFNRGEC | 0.5
3 | GLS3000 K50S one-arm antibody (antibody, human IgG1, kappa, L234A L235A, N297A, name in Kabat numbering) heavy: QVQLVESGGGVVQPGRSLRLSCAASGFTFSNAWMHWVRQAPGKGLEWVAQIKAKSNNYATYYAESVKGRFTISRDDSKNSLYLQMNSLKTEDTAVYYCRYVHYGAYYGVDAWGQGTTVTVSSASTKGPSVFPLAPSSKSTSGGTAALGCLVKDYFPEPVTVSWNSGALTSGVHTFPAVLQSSGLYSLSSVVTVPSSSLGTQTYICNVNHKPSNTKVDKKVEPKSCDKTHTCPPCPAPEAAGGPSVFLFPPKPKDTLMISRTPEVTCVVVDVSHEDPEVKFNWYVDGVEVHNAKTKPREEQYASTYRVVSVLTVLHQDWLNGKEYKCKVSNKALPAPIEKTISKAKGQPREPQVYTLPPSRCELTKNQVSLSCAVKGFYPSDIAVEWESNGQPENNYKTTPPVLDSDGSFFLVSKLTVDKSRWQQGNVFSCSVMHEALHNHYTQKSLSLSPDYKDDDDK EPKSSDKTHTCPPCPAPELLGGPSVFLFPPKPKDTLMISRTPEVTCVVVDVSHEDPEVKFNWYVDGVEVHNAKTKPREEQYNSTYRVVSVLTVLHQDWLNGKEYKCKVSNKALPAPIEKTISKAKGQPREPQVCTLPPSRDELTKNQVSLWCLVKGFYPSDIAVEWESNGQPENNYKTTPPVLDSDGSFFLYSKLTVDKSRWQQGNVFSCSVMHEALHNRYTQKSLSLSP light: DIVMTQSPLSLPVTPGEPASISCRSSQSLVHSNRNTYLHWYQQKPGQAPRLLIYSVSNRFSGVPDRFSGSGSGTDFTLKISRVEAEDVGVYYCGQGTQVPYTFGQGTKLEIKRTVAAPSVFIFPPSDEQLKSGTASVVCLLNNFYPREAKVQWKVDNALQSGNSQESVTEQDSKDSTYSLSSTLTLSKADYEKHKVYACEVTHQGLSSPVTKSFNRGEC | 0.23
4 | GLS3000 K50T one-arm antibody (antibody, human IgG1, kappa, L234A L235A, N297A, name in Kabat numbering) heavy: QVQLVESGGGVVQPGRSLRLSCAASGFTFSNAWMHWVRQAPGKGLEWVAQIKAKSNNYATYYAESVKGRFTISRDDSKNSLYLQMNSLKTEDTAVYYCRYVHYGAYYGVDAWGQGTTVTVSSASTKGPSVFPLAPSSKSTSGGTAALGCLVKDYFPEPVTVSWNSGALTSGVHTFPAVLQSSGLYSLSSVVTVPSSSLGTQTYICNVNHKPSNTKVDKKVEPKSCDKTHTCPPCPAPEAAGGPSVFLFPPKPKDTLMISRTPEVTCVVVDVSHEDPEVKFNWYVDGVEVHNAKTKPREEQYASTYRVVSVLTVLHQDWLNGKEYKCKVSNKALPAPIEKTISKAKGQPREPQVYTLPPSRCELTKNQVSLSCAVKGFYPSDIAVEWESNGQPENNYKTTPPVLDSDGSFFLVSKLTVDKSRWQQGNVFSCSVMHEALHNHYTQKSLSLSPDYKDDDDK EPKSSDKTHTCPPCPAPELLGGPSVFLFPPKPKDTLMISRTPEVTCVVVDVSHEDPEVKFNWYVDGVEVHNAKTKPREEQYNSTYRVVSVLTVLHQDWLNGKEYKCKVSNKALPAPIEKTISKAKGQPREPQVCTLPPSRDELTKNQVSLWCLVKGFYPSDIAVEWESNGQPENNYKTTPPVLDSDGSFFLYSKLTVDKSRWQQGNVFSCSVMHEALHNRYTQKSLSLSP light: DIVMTQSPLSLPVTPGEPASISCRSSQSLVHSNRNTYLHWYQQKPGQAPRLLIYTVSNRFSGVPDRFSGSGSGTDFTLKISRVEAEDVGVYYCGQGTQVPYTFGQGTKLEIKRTVAAPSVFIFPPSDEQLKSGTASVVCLLNNFYPREAKVQWKVDNALQSGNSQESVTEQDSKDSTYSLSSTLTLSKADYEKHKVYACEVTHQGLSSPVTKSFNRGEC | 0.19
